Values of other authors in PMC2830912.

Target: Pol III alpha subunit (Escherichia coli) (UniProt P10443)
Sequence (P10443 whole entry): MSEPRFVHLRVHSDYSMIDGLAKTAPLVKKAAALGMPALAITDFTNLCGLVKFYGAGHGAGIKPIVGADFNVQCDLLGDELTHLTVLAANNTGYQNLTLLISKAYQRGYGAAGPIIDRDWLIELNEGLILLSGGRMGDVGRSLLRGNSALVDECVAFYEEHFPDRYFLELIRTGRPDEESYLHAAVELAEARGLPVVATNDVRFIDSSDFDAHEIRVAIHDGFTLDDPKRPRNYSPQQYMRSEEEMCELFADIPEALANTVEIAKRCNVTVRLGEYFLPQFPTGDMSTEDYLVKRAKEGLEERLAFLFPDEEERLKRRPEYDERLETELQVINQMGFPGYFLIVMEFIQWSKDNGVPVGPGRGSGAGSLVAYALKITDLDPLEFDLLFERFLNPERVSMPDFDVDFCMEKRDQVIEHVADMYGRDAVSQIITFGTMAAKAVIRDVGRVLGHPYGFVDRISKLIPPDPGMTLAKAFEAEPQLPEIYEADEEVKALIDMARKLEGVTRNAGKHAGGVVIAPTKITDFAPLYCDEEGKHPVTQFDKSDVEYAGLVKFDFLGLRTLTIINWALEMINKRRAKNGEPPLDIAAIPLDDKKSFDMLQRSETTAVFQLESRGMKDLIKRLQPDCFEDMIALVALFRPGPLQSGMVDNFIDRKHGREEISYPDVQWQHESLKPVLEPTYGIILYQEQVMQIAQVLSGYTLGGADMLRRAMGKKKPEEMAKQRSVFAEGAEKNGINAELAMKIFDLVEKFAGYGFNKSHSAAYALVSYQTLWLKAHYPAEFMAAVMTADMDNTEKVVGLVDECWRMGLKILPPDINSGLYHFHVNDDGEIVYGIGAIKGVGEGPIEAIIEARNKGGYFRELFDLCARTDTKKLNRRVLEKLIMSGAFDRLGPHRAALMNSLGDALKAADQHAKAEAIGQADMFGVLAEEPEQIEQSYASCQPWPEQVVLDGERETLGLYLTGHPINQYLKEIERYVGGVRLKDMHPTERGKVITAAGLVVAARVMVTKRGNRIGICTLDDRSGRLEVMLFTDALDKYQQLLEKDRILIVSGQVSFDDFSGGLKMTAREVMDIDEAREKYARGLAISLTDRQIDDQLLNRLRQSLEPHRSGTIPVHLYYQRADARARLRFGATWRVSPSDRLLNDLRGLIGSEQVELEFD

Chain of DnaX tau subunit (P06710 2-643): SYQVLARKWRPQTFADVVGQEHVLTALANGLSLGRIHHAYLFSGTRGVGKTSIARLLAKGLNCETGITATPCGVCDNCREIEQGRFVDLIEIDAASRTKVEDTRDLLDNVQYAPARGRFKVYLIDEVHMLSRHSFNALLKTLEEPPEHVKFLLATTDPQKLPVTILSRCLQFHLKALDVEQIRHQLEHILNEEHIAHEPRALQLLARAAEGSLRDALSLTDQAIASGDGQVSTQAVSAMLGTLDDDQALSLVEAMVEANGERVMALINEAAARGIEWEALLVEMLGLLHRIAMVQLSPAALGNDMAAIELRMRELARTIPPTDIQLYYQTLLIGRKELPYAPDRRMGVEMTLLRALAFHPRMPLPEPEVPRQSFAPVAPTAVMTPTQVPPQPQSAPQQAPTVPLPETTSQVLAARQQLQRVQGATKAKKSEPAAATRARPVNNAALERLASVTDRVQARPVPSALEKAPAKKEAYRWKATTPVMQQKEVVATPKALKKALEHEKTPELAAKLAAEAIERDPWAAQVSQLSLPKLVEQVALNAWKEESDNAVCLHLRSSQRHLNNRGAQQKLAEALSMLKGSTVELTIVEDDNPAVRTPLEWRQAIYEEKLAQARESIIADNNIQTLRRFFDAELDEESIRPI

Kd: 0.07 nM
Substance: DnaX tau subunit (from UniProt P06710)
